{"source": "paper PMC9482650", "about": "“Quantitative fragmentomics allow affinity mapping of interactomes” (Nature Communications, 2022)", "data": [{"target": "AHNAK1, Q09666", "sequence (Q09666 4-100)": "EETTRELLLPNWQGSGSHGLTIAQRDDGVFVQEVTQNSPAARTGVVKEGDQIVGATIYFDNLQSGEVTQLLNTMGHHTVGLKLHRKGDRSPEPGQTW", "assay": "holdup assay", "set-up": "key: below the threshold = too weak to quantify, mostly under pKd 3.1 to 4", "settings": "plain residues with an end cap or a label only (N-terminal biotin on a linker: ado-ado)", "values": [{"binder": "IDESKKEWLI", "note": "[CNTNAP2, Q9UHC6]", "pKd": "below the threshold"}]}, {"target": "Inadl_5, Q8NI35", "sequence (Q8NI35 673-780)": "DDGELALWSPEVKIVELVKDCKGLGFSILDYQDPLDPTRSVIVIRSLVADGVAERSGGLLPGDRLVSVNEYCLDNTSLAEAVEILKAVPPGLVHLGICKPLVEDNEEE", "assay": "holdup assay", "set-up": "key: below the threshold = too weak to quantify, mostly under pKd 3.1 to 4", "settings": "plain residues with an end cap or a label only (N-terminal biotin on a linker: ado-ado)", "values": [{"binder": "IDESKKEWLI", "note": "[CNTNAP2, Q9UHC6]", "pKd": "below the threshold"}]}, {"target": "T1, MPDZ_5, O75970", "T1 sequence (O75970 695-796, limits assumed, looked up)": "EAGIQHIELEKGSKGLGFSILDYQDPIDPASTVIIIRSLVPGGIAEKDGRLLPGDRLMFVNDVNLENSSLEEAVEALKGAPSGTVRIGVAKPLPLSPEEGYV", "assay": "holdup assay", "set-up": "key: below the threshold = too weak to quantify, mostly under pKd 3.1 to 4", "settings": "plain residues with an end cap or a label only (N-terminal biotin on a linker: ado-ado)", "values": [{"binder": "IDESKKEWLI", "note": "[CNTNAP2, Q9UHC6]", "pKd": "below the threshold"}]}, {"target": "T2, DLG3_2, Q92796", "T2 sequence (Q92796 221-321, limits assumed, looked up)": "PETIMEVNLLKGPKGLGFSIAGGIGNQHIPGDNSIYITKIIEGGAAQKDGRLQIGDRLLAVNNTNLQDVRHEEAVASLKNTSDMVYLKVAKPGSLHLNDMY", "assay": "holdup assay", "set-up": "key: below the threshold = too weak to quantify, mostly under pKd 3.1 to 4", "settings": "plain residues with an end cap or a label only (N-terminal biotin on a linker: ado-ado)", "values": [{"binder": "IDESKKEWLI", "note": "[CNTNAP2, Q9UHC6]", "pKd": 3.91}]}, {"target": "TJP1_3, Q07157", "sequence (Q07157 416-512)": "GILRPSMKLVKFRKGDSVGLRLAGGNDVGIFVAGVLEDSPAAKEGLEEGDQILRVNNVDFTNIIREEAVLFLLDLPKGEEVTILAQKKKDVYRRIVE", "assay": "holdup assay", "set-up": "key: below the threshold = too weak to quantify, mostly under pKd 3.1 to 4", "settings": "plain residues with an end cap or a label only (N-terminal biotin on a linker: ado-ado)", "values": [{"binder": "IDESKKEWLI", "note": "[CNTNAP2, Q9UHC6]", "pKd": "below the threshold"}]}, {"target": "Inadl_3, Q8NI35", "sequence (Q8NI35 359-469)": "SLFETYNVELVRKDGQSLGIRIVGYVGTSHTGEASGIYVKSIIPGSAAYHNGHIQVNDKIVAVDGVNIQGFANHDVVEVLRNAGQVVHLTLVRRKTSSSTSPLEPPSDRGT", "assay": "holdup assay", "set-up": "key: below the threshold = too weak to quantify, mostly under pKd 3.1 to 4", "settings": "plain residues with an end cap or a label only (N-terminal biotin on a linker: ado-ado)", "values": [{"binder": "IDESKKEWLI", "note": "[CNTNAP2, Q9UHC6]", "pKd": 5.46}]}, {"target": "DLG1_3, Q12959", "sequence (Q12959 457-571)": "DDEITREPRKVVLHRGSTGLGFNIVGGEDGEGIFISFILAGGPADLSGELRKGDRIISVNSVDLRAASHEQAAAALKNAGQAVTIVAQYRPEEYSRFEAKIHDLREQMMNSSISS", "assay": "holdup assay", "set-up": "key: below the threshold = too weak to quantify, mostly under pKd 3.1 to 4", "settings": "plain residues with an end cap or a label only (N-terminal biotin on a linker: ado-ado)", "values": [{"binder": "IDESKKEWLI", "note": "[CNTNAP2, Q9UHC6]", "pKd": "below the threshold"}]}, {"target": "T3, MPDZ_12, O75970", "T3 sequence (O75970 1857-1958, limits assumed, looked up)": "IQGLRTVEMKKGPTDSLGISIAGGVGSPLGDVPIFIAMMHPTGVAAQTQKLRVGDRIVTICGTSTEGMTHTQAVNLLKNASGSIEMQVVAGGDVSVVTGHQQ", "assay": "holdup assay", "set-up": "key: below the threshold = too weak to quantify, mostly under pKd 3.1 to 4", "settings": "plain residues with an end cap or a label only (N-terminal biotin on a linker: ado-ado)", "values": [{"binder": "IDESKKEWLI", "note": "[CNTNAP2, Q9UHC6]", "pKd": "below the threshold"}]}, {"target": "T4, DFNB31_1, Q9P202", "T4 sequence (Q9P202 135-233, limits assumed, looked up)": "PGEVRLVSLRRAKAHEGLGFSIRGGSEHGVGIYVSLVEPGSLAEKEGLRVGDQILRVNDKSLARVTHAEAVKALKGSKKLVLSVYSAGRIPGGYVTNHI", "assay": "holdup assay", "set-up": "key: below the threshold = too weak to quantify, mostly under pKd 3.1 to 4", "settings": "plain residues with an end cap or a label only (N-terminal biotin on a linker: ado-ado)", "values": [{"binder": "IDESKKEWLI", "note": "[CNTNAP2, Q9UHC6]", "pKd": "below the threshold"}]}, {"target": "T5, SIPA1L2, Q9P2F8", "T5 sequence (Q9P2F8 945-1036, limits assumed, looked up)": "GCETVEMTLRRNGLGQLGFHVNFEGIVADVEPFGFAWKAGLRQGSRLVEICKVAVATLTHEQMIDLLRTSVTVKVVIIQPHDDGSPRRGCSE", "assay": "holdup assay", "set-up": "key: below the threshold = too weak to quantify, mostly under pKd 3.1 to 4", "settings": "plain residues with an end cap or a label only (N-terminal biotin on a linker: ado-ado)", "values": [{"binder": "IDESKKEWLI", "note": "[CNTNAP2, Q9UHC6]", "pKd": "below the threshold"}]}, {"target": "T6, SNTG2, Q9NY99", "T6 sequence (Q9NY99 68-166, limits assumed, looked up)": "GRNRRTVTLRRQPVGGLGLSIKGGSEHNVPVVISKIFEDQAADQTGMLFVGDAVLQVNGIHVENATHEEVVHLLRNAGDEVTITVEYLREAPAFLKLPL", "assay": "holdup assay", "set-up": "key: below the threshold = too weak to quantify, mostly under pKd 3.1 to 4", "settings": "plain residues with an end cap or a label only (N-terminal biotin on a linker: ado-ado)", "values": [{"binder": "IDESKKEWLI", "note": "[CNTNAP2, Q9UHC6]", "pKd": "below the threshold"}]}, {"target": "T7, DLG3_1, Q92796", "T7 sequence (Q92796 125-227, limits assumed, looked up)": "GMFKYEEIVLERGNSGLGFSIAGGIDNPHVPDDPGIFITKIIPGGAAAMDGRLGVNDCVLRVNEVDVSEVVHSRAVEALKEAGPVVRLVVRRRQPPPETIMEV", "assay": "holdup assay", "set-up": "key: below the threshold = too weak to quantify, mostly under pKd 3.1 to 4", "settings": "plain residues with an end cap or a label only (N-terminal biotin on a linker: ado-ado)", "values": [{"binder": "IDESKKEWLI", "note": "[CNTNAP2, Q9UHC6]", "pKd": "below the threshold"}]}, {"target": "T8, MPDZ_10, O75970", "T8 sequence (O75970 1624-1722, limits assumed, looked up)": "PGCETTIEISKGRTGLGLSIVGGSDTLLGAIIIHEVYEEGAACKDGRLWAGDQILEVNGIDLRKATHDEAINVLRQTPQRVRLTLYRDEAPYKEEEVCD", "assay": "holdup assay", "set-up": "key: below the threshold = too weak to quantify, mostly under pKd 3.1 to 4", "settings": "plain residues with an end cap or a label only (N-terminal biotin on a linker: ado-ado)", "values": [{"binder": "IDESKKEWLI", "note": "[CNTNAP2, Q9UHC6]", "pKd": "below the threshold"}]}, {"target": "T9, PDZRN3_1, Q9UPQ7", "T9 sequence (Q9UPQ7 244-349, limits assumed, looked up)": "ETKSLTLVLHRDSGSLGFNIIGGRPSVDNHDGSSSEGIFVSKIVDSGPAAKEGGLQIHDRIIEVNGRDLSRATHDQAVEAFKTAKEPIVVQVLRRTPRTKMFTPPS", "assay": "holdup assay", "set-up": "key: below the threshold = too weak to quantify, mostly under pKd 3.1 to 4", "settings": "plain residues with an end cap or a label only (N-terminal biotin on a linker: ado-ado)", "values": [{"binder": "IDESKKEWLI", "note": "[CNTNAP2, Q9UHC6]", "pKd": "below the threshold"}]}, {"target": "T10, LIN7B, Q9HAP6", "T10 sequence (Q9HAP6 88-185, limits assumed, looked up)": "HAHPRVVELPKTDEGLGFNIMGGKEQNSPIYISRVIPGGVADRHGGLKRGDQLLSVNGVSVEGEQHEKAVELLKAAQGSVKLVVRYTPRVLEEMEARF", "assay": "holdup assay", "set-up": "key: below the threshold = too weak to quantify, mostly under pKd 3.1 to 4", "settings": "plain residues with an end cap or a label only (N-terminal biotin on a linker: ado-ado)", "values": [{"binder": "IDESKKEWLI", "note": "[CNTNAP2, Q9UHC6]", "pKd": 3.75}]}, {"target": "NHERF4_2, Q86UT5", "sequence (Q86UT5 220-308)": "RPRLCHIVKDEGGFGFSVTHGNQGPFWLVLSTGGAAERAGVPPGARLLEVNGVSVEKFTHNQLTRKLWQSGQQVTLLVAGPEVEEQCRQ", "assay": "holdup assay", "set-up": "key: below the threshold = too weak to quantify, mostly under pKd 3.1 to 4", "settings": "plain residues with an end cap or a label only (N-terminal biotin on a linker: ado-ado)", "values": [{"binder": "IDESKKEWLI", "note": "[CNTNAP2, Q9UHC6]", "pKd": "below the threshold"}]}, {"target": "SNX27, Q96L92", "assay": "holdup assay", "set-up": "key: below the threshold = too weak to quantify, mostly under pKd 3.1 to 4", "settings": "plain residues with an end cap or a label only (N-terminal biotin on a linker: ado-ado)", "values": [{"binder": "IDESKKEWLI", "note": "[CNTNAP2, Q9UHC6]", "pKd": "below the threshold"}]}, {"target": "LDB3, O75112", "sequence (O75112 1-94)": "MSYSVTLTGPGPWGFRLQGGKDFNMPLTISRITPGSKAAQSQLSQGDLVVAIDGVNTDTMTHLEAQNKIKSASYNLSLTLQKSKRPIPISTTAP", "assay": "holdup assay", "set-up": "key: below the threshold = too weak to quantify, mostly under pKd 3.1 to 4", "settings": "plain residues with an end cap or a label only (N-terminal biotin on a linker: ado-ado)", "values": [{"binder": "IDESKKEWLI", "note": "[CNTNAP2, Q9UHC6]", "pKd": "below the threshold"}]}, {"target": "FRMPD2_3, Q68DX3", "sequence (Q68DX3 1073-1166)": "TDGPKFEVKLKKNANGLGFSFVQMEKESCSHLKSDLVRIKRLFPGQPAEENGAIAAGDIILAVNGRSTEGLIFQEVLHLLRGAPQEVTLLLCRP", "assay": "holdup assay", "set-up": "key: below the threshold = too weak to quantify, mostly under pKd 3.1 to 4", "settings": "plain residues with an end cap or a label only (N-terminal biotin on a linker: ado-ado)", "values": [{"binder": "IDESKKEWLI", "note": "[CNTNAP2, Q9UHC6]", "pKd": 3.51}]}, {"target": "SCRIB_1, Q14160", "sequence (Q14160 718-814)": "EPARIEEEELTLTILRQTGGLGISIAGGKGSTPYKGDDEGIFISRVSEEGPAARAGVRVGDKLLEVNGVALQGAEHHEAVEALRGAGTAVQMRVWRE", "assay": "holdup assay", "set-up": "key: below the threshold = too weak to quantify, mostly under pKd 3.1 to 4", "settings": "plain residues with an end cap or a label only (N-terminal biotin on a linker: ado-ado)", "values": [{"binder": "IDESKKEWLI", "note": "[CNTNAP2, Q9UHC6]", "pKd": "below the threshold"}]}, {"target": "NHERF4_4, Q86UT5", "sequence (Q86UT5 464-550)": "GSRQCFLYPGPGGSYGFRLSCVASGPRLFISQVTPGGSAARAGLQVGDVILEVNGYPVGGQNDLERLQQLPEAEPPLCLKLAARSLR", "assay": "holdup assay", "set-up": "key: below the threshold = too weak to quantify, mostly under pKd 3.1 to 4", "settings": "plain residues with an end cap or a label only (N-terminal biotin on a linker: ado-ado)", "values": [{"binder": "IDESKKEWLI", "note": "[CNTNAP2, Q9UHC6]", "pKd": "below the threshold"}]}, {"target": "T11, NHERF3_3, Q5T2W1", "T11 sequence (Q5T2W1 238-333, limits assumed, looked up)": "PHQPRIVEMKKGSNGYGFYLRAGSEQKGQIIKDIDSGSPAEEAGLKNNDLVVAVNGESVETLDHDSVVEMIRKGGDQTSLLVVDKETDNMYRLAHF", "assay": "holdup assay", "set-up": "key: below the threshold = too weak to quantify, mostly under pKd 3.1 to 4", "settings": "plain residues with an end cap or a label only (N-terminal biotin on a linker: ado-ado)", "values": [{"binder": "IDESKKEWLI", "note": "[CNTNAP2, Q9UHC6]", "pKd": "below the threshold"}]}, {"target": "T12, RAPGEF6, Q8TEU7", "T12 sequence (Q8TEU7 525-625, limits assumed, looked up)": "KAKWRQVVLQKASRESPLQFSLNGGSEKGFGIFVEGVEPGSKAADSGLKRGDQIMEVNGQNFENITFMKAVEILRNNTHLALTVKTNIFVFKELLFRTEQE", "assay": "holdup assay", "set-up": "key: below the threshold = too weak to quantify, mostly under pKd 3.1 to 4", "settings": "plain residues with an end cap or a label only (N-terminal biotin on a linker: ado-ado)", "values": [{"binder": "IDESKKEWLI", "note": "[CNTNAP2, Q9UHC6]", "pKd": "below the threshold"}]}, {"target": "GRID2IP_1, A4D2P6", "sequence (A4D2P6 1-87)": "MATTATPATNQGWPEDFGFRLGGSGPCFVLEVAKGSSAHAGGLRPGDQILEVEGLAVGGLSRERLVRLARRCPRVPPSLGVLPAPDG", "assay": "holdup assay", "set-up": "key: below the threshold = too weak to quantify, mostly under pKd 3.1 to 4", "settings": "plain residues with an end cap or a label only (N-terminal biotin on a linker: ado-ado)", "values": [{"binder": "IDESKKEWLI", "note": "[CNTNAP2, Q9UHC6]", "pKd": "below the threshold"}]}]}
